Patent US20050119174A1, “Novel blood sugar controller and method of screening the same” (Sumitomo Pharmaceuticals Co. Ltd., priority 2002, published 2005)
Where no end group is shown, it is not given here.

How the values were obtained:
[1] = system: diabetic model mouse C57BL/KsJ-db/db mice; assay: Oral glucose tolerance test; format: in vivo; conditions: for glucose tolerance ameliorating effect (blood glucose level after glucose loading): db/db mice fasted overnight, intravenous, mouse IP-10 6 μg/head, GLP-1 (7-36 Amide) 50 μg/head, 3 g/kg D-glucose orally, 0-135 minutes, FIGS. 2 and 3; for blood glucose levels at 90 minutes after glucose loading: db/db mice, intravenous mouse Mig or human I-TAC, versus solvent control group, FIG. 4
Experimental: In the test, diabetic model mouse C57BL/KsJ-db/db mice (male, SPF grade, 7-week old, Clea Japan) were fasted overnight from the day before testing, mouse IP-10 (PEPRO TECH) or GLP-1 (7-36 Amide) (Peptide Institute), previously dried, was dissolved in physiological saline (Otsuka Pharmaceutical), and intravenous administration was conducted (6 μg/head; n=4 for IP-10, 50 μg/head; n=4 for GLP-1). For a solvent control group, physiological saline (Otsuka Pharmaceutical) was used (n=4). After intravenous administration, 3 g/kg of D-glucose was orally administered. Before glucose loading (0 minute) and 15, 45, 90 and 135 minutes after glucose loading, blood was collected from the caudal vein, and blood glucose levels were measured in accordance with the method described below.
That is, 10 μl of blood was collected and mixed with 100 μL of 0.4 N perchloric acid, further 50 μL of 0.37 M potassium carbonate was added, and the supernatant after centrifugation was analyzed using the Glucose CII•Test Wako (glucose quantitation kit, mutarotase•GOD method, Wako Pure Chemicals) to determine the blood glucose level.
Also for Mig and I-TAC, which are CXCR3 ligands other than IP-10, mouse Mig or human I-TAC (both manufactured by BIOCARTA), previously dried, was dissolved in physiological saline (Otsuka Pharmaceutical), intravenous administration was conducted, and glucose tolerance ameliorating action was evaluated by the same technique.

human CXCR3 (human) = human CXCR3 (human) (UniProt P49682); assay: cell-based or functional assay
CXCR3 [2] = target: T1, CXCR3 (Homo sapiens, UniProt P49682); assay: Calcium signaling using FLIPR, CHO/Gqi5 cells transiently expressing CXCR3; format: cell-based; parameters: prepared by amplifying the coding region of human CXCR3 by the PCR technique; expressed in transfected cells; host or cells: CHO/Gqi5 cells; conditions: pcDNA3.1/Zeo-CXCR3 transiently transfected CHO/Gqi5 cells; human ligands, 300 ng/ml; FIG. 5
T1 sequence (P49682 1-368): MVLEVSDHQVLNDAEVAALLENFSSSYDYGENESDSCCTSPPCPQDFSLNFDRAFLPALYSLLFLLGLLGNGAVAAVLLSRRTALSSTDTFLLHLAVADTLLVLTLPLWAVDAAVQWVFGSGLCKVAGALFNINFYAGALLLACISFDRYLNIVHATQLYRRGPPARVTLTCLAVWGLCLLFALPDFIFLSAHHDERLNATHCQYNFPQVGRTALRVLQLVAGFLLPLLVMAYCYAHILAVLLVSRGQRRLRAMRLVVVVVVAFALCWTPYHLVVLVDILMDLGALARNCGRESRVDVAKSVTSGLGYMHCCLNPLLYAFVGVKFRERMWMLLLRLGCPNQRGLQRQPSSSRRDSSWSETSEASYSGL
Experimental: (§1) CHO/Gqi5 cells, at 2×10^4 cells/well, were sown to a 96-well Black bottom clear plate (Corning), and cultured in the absence of antibiotics in a CO2 incubator for 24 hours. 50 ng of pcDNA3.1/Zeo-CXCR3 or pcDNA3.1 was diluted in 5 μl of OPTI-MEM, and 0.3 μl of LipofectAmine was diluted in 5 μl of OPTI-MEM. Both were mixed and allowed to stand at room temperature for 30 minutes, after which 40 μl of a serum-free F12 medium was added, and the mixture was added to wells once washed with a serum-free F12 medium. After cultivation in a CO2 incubator for 4 hours, the medium was replaced with a 10% FBS-supplemented F12 medium (once washed), and the cells were cultured in a CO2 incubator for 24 hours and subjected to a measurement using FLIPR®.
(§2) The cells recovered from each well were sown to a 96-well Black bottom clear plate (Corning). When cell counting was possible, the cells were sown at 2×10^4 cells/well. Next day, the medium was removed, 50 μl of an H/H/F/PB solution containing 2 μM Fluo-3-AM and 0.02% Pluronic acid was added, and cultivation was conducted in a CO2 incubator for 1 hour. […]

CXCR3 [3] = target: T1, CXCR3; assay: Calcium signaling using FLIPR, CHO/Gqi5 line stably expressing CXCR3 (#122-17); format: cell-based; parameters: prepared by amplifying the coding region of human CXCR3 by the PCR technique; expressed in transfected cells; host or cells: CHO/Gqi5 cells; conditions: #122-17 line, FIG. 6; for concentration dependency of the response: human ligands at 100, 300, 1,000 ng/ml; for ligand concentration from which responsiveness could be confirmed: human ligands
Experimental: 1×10^6 cells were sown to a T25 flask, and cultured in a CO2 incubator for 24 hours. pcDNA3.1/Zeo-CXCR3 was cleaved with the restriction endonuclease SspI, and linearized at the vector portion. 2.5 μg of this plasmid DNA was diluted in 250 μl of OPTI-MEM, and 15 μl of LipofectAmine was diluted in 250 μl of OPTI-MEM. Both were mixed and allowed to stand at room temperature for 30 minutes, after which 2 ml of a serum-free F12 medium was added, and the mixture was added to a flask once washed with a serum-free F12 medium. After cultivation in a CO2 incubator for 4 hours, the medium was replaced with a 10% FBS-supplemented F12 medium (once washed), and cultivation was conducted in a CO2 incubator for 48 hours. The cells were recovered and sown to a 96-well plate at 1, 5 or 25 cells/well. At this time, Zeocin was added at 250 μg/ml. Three 96-well plates for each cell concentration, i.e., a total of nine plates, were cultured. About 20 days later, cells were recovered from the wells with evidence of cell proliferation, and sown to a 96-well Black bottom clear plate (Corning). Next day the plate was subjected to a measurement using FLIPR®, and selection of lines showing good ligand responsiveness was performed. For the lines showing good ligand responsiveness, recloning was performed. Each was selected at 0.1 cells/well on the 96-well plate, cells were recovered from the wells showing evidence of cell proliferation after about 20 days, and line selection was performed in the same manner as above.
The cells recovered from each well were sown to a 96-well Black bottom clear plate (Corning). When cell counting was possible, the cells were sown at 2×10^4 cells/well. Next day, the medium was removed, 50 μl of an H/H/F/PB solution containing 2 μM Fluo-3-AM and 0.02% Pluronic acid was added, and cultivation was conducted in a CO2 incubator for 1 hour. The medium was replaced with 100 μl of H/H/F/PB solution and heating was conducted in a CO2 incubator for 10 minutes, after which the plate was set to FLIPR® and further heated at 37° C. for 10 minutes, after which 25 μl of the ligand similarly heated at 37° C. was added using an injector, and a measurement of calcium signaling was conducted.
By the aforementioned method of (2)-2., pcDNA3.1/Zeo-CXCR3 was cleaved with the restriction endonuclease SspI and linearized at the vector portion. This was transfected to CHO/Gqi5 cells, and drug-resistant lines were selected using 250 μg/ml zeocin to obtain 156 drug-resistant lines. Next, for these resistant lines, responsiveness to IP-10 was confirmed using FLIPR®, and lines showing high ligand responsiveness (6 clones) were isolated. […]

[4] = system: CHO/Gqi5 cell line incorporating an empty vector (pcDNA3.1); assay: Calcium signaling using FLIPR, CHO/Gqi5 cells transfected with control pcDNA3.1 (empty vector); format: cell-based; conditions: control pcDNA3.1 transfected CHO/Gqi5 cells; human ligands, 300 ng/ml; FIG. 5
Experimental: as §1, §2

CXCR3 [5] = target: T1, CXCR3; conditions: J. Biol. Chem., 273(29): 18288-18291 (1998); Eur. J. Immunol., 29 (1999); cited from earlier work

With “GLP-1 (7-36 Amide) (HAEGTFTSDVSSYLEGQAAKEFIAWLVKGR-NH2; UniProt P01275 98-127, looked up) [a kind of incretin known to act on the pancreas to promote insulin secretion (Peptide Institute), reference compound]” the “glucose tolerance ameliorating effect (blood glucose level after glucose loading)” value [1] was “glucose tolerance ameliorating effect”.

“Human IP-10 (Peprotech) (from UniProt P02778 22-98) (ligand)” gave a lowest ligand concentration giving a calcium response (FLIPR) in the CXCR3 stably expressing CHO/Gqi5 line #122-17 (human CXCR3 (human)) of 300 ng/mL.

For “I-TAC: CXC chemokine, physiological ligand for CXCR3; human I-TAC”, the “responsiveness to ligand (calcium signaling, fluorescence intensity)” value (CXCR3 [2]) was “a response was observed”, the “concentration dependency of the response” value (CXCR3 [3]) was “concentration dependency could be confirmed” and the “ligand concentration from which responsiveness could be confirmed” value (CXCR3 [3]) was at least 100 ng/mL. The “responsiveness to ligand (calcium signaling, fluorescence intensity)” value [4] was “no response was detected” and the “blood glucose levels at 90 minutes after glucose loading” value [1] was “decreased compared to the solvent control group”.

With “IP-10: CXC chemokine, physiological ligand for CXCR3; mouse IP-10 (PEPRO TECH) in Example 1, human IP-10 (Peprotech) in Example 4” the “responsiveness to ligand (calcium signaling, fluorescence intensity)” value (CXCR3 [2]) was “a response was observed”, the “concentration dependency of the response” value (CXCR3 [3]) was “concentration dependency could be confirmed” and the “ligand concentration from which responsiveness could be confirmed” value (CXCR3 [3]) was at least 300 ng/mL. The “responsiveness to ligand (calcium signaling, fluorescence intensity)” value [4] was “no response was detected” and the “glucose tolerance ameliorating effect (blood glucose level after glucose loading)” value [1] was “glucose tolerance ameliorating effect nearly equivalent, on a dose basis, to that of GLP-1”.

For “MCP-3: CC chemokine known to weakly bind to CXCR3”, the “binding to CXCR3” value (CXCR3 [5]) is given as “weakly bind”.

For “MCP-4: CC chemokine known to weakly bind to CXCR3”, the “binding to CXCR3” value (CXCR3 [5]) is listed as “weakly bind”.

For “MIP-3a: CC chemokine known to weakly bind to CXCR3”, the “binding to CXCR3” value (CXCR3 [5]) is listed as “weakly bind”.

For “RANTES: CC chemokine known to weakly bind to CXCR3”, the “binding to CXCR3” value (CXCR3 [5]) is listed as “weakly bind”.

For “eotaxin: CC chemokine known to weakly bind to CXCR3”, the “binding to CXCR3” value (CXCR3 [5]) is listed as “weakly bind”.

“human I-TAC (G/T) (from UniProt O14625 22-94) (ligand)” showed a lowest ligand concentration giving a calcium response (FLIPR) in the CXCR3 stably expressing CHO/Gqi5 line #122-17 (human CXCR3 (human)) of 100 ng/mL.

B1: Mig: CXC chemokine, physiological ligand for CXCR3; mouse Mig (BIOCARTA) (protein, UniProt P18340 22-126, looked up)
C-X-C motif chemokine 9: TLVIRNARCSCISTSRGTIHYKSLKDLKQFAPSPNCNKTEIIATLKNGDQTCLDPDSANVKKLMKEWEKKISQKKKQKRGKKHQKNMKNRKPKTPQSRRRSRKTT
In the case of B1, the “blood glucose levels at 90 minutes after glucose loading” value [1] is reported as “decreased compared to the solvent control group”.

B2: 6Ckine: CC chemokine known to weakly bind to CXCR3 (protein, UniProt O00585 24-134, looked up)
C-C motif chemokine 21: SDGGAQDCCLKYSQRKIPAKVVRSYRKQEPSLGCSIPAILFLPRKRSQAELCADPKELWVQQLMQHLDKTPSPQKPAQGCRKDRGASKTGKKGKGSKGCKRTERSQTPKGP
For B2, the “binding to CXCR3” value (CXCR3 [5]) is listed as “weakly bind”.
